According to patent publication US20160039936A1, “FIBROBLAST GROWTH FACTOR RECEPTOR INHIBITION FOR THE TREATMENT OF DISEASE” (UNIVERSITY OF MIAMI, priority 2011, published 2016):

B1: FGF23: recombinant mouse FGF23, 6His-tagged Tyr25-Val251 (Arg179Gln) (R&D Systems) (protein)
chain: YPDTSPLLGSNWGSLTHLYTATARTSYHLQIHRDGHVDGTPHQTIYSALMITSEDAGSVVITGAMTRRFLCMDLHGNIFGSLHFSPENCKFRQWTLENGYDVYLSQKHHYLVSLGRAKRIFQPGTNPPPFSQFLARRNEVPLLHFYTVRPRRHTQSAEDPPERDPLNVLKPRPRATPVPVSCSRELPSAEEGGPAASDPLGVLRRGRGDARGGAGGADRCRPFPRFV
modifications: left off: small tags and cut ends
B2: FGF2: recombinant mouse FGF2 (Ala11-Ser154) (R&D Systems) (protein)
chain: ALPEDGGAAFPPGHFKDPKRLYCKNGGFFLRIHPDGRVDGVREKSDPHVKLQLQAEERGVVSIKGVCANRYLAMKEDGRLLASKCVTEECFFFERLESNNYNTYRSRKYSSWYVALKRTGQYKLGSKTGPGQKAILFLPMSAKS

Assays:
Type in all cases: cell-based, rat
[1] = tested on: isolated NRVM; test: Quantitative PCR of ANP and BNP in NRVM; conditions: for expression of ANP and BNP: 48 h, FGF alone, qPCR
Description: Total RNA was purified from isolated NRVMs using Trizol (G Biosciences) according to the manufacturer's protocol, and reverse transcribed using Qscript (Quanta Biosciences). Gene expression was quantified by real-time PCR on a Biorad CFX 96 real-time Detection System using 200 ng of cDNA, PerfeCTA SYBR Green FastMix ROX (Quanta Biosciences). RNA from total mouse and rat hearts was extracted using the PureLink RNA Mini Kit (Ambion by Life Technologies) and Trizol (Life Technologies). 2 μg total RNA was reverse-transcribed using First Stand cDNA Synthesis Kit for RT-PCR (AMV) (Roche Diagnostics). Quantitative PCR reactions were carried out in the StepOne plus Real-Time PCR System (Applied Biosystems) using FAST SYBR Green Master Mix (Applied Biosystems). Raw data were quantified via StepOne™ software v2.3 from life Technologies. Relative gene expression was normalized to expression levels of 18S rRNA (for NRVM), and GAPDH or beta actin (mouse and rat tissue), and evaluated using the 2^−ΔΔCt method.

[2] = tested on: isolated NRVM; test: Hypertrophic marker expression in NRVM (RT-PCR, α-actinin immunoblot); conditions: for α-actinin protein levels: 48 h, immunoblotting; for expression of ANP and BNP / expression of medium chain acyl-CoA dehydrogenase (MCAD) / expression of α-myosin heavy chain (α-MHC) / expression of β-myosin heavy chain (β-MHC): RT-PCR
Description: RNA was purified from isolated NRVM using the RNeasy kit (Qiagen), and from mouse cardiac and renal tissue using 1 ml per 100 mg tissue TRIzol (Invitrogen), following the manufacturers' protocol. Prior to RT-PCR, total RNA samples were digested with DNase I (Roche) and RNA was transcribed into cDNA using Superscript II (Invitrogen). For RT-PCR, 100 ng cDNA, AmpliTaq Gold DNA polymerase (Applied Biosystems) and sequence specific primers were used. 30 cycles (95° C., 5 minutes-53° C., 30 seconds-72° C., 30 seconds) were run on a GeneAmp PCR System 9700 (Applied Biosystems) and reactions were analyzed on a 2% agarose gel. Ethidium bromide signals were captured with a Bio-Rad Gel Doc XR system and quantified by densitometry using ImageJ software (NIH). Values were normalized to GAPDH signals and cDNAs from three independent experiments were analyzed. For nested PCR, 100 ng cDNA were used in the first run (15 cycles) with sequence specific outside primers. Five percent of the reaction was used as template for the second run (25 cycles) with sequence specific inside primers, and the total reaction was analyzed by agarose gel electrophoresis.
(§1) NRVM were scraped from a 6 cm-plate using 400 μl CHAPS extraction buffer [(20 mM Tris-HCl pH7.5, 500 mM NaCl, 0.5% CHAPS, protease inhibitor cocktail (Roche), protein phosphatase inhibitors (Sigma-Aldrich)] and incubated on ice for 15 minutes. The cell lysate was centrifuged at 14,000 rpm and 4° C. for 15 minutes and the supernatant boiled in sample buffer and analyzed by SDS-PAGE and immunoblotting as described before (Faul et al., Cell Biol., 169(3):415-424, 2005; Faul et al., Mol. Cell Biol., 27(23):8215-8227, 2007). For protein extraction from mouse hearts, tissue was isolated, minced and homogenized in CHAPS extraction buffer at 1:10 (w:v) and protein lysates were prepared as described above. Antibodies to sarcomeric α-actinin (EA-53; Sigma-Aldrich; 1:1000), total (Cell Signaling; 1:1000) and phospho-ERK (Cell Signaling; 1:1000), total and phospho-NFAT-c1 (Santa Cruz Biotechnology; 1:200), total and phospho-Akt (Cell Signaling; 1:1000 and 1:2000), and GAPDH (Abcam; 1:10,000) were used as primary antibodies and horseradish peroxidase conjugated goat-anti-mouse and goat-anti-rabbit (Promega; 1:20,000) were secondary antibodies.

[3] = tested on: isolated NRVM; test: Signaling immunoblots in NRVM (p-ERK, Egr-1, p-NFAT, p-Akt); conditions: for Egr-1 levels / phosphorylated ERK: 30 and 60 minutes
Description: as §1

Molecule | FGF2-mediated increases in ANP and BNP expression with inhibitor ([1]; 48 h co-treatment) | FGF23-mediated increases in ANP and BNP expression with inhibitor ([1]; 48 h co-treatment) | α-actinin protein levels [2] | expression of ANP and BNP [2] | expression of medium chain acyl-CoA dehydrogenase (MCAD) [2] | expression of α-myosin heavy chain (α-MHC) [2] | expression of β-myosin heavy chain (β-MHC) [2] | Egr-1 levels [3] | phosphorylated ERK [3] | phosphorylated NFAT ([3]; after 60 minutes) | expression of ANP and BNP [1] | phosphorylated Akt ([3]; after 60 minutes)
CCN(CC)CCCCNc1ncc2cc(-c3cc(OC)cc(OC)c3)c(NC(=O)NC(C)(C)C)nc2n1 [PD173074] | blocks | blocks |  |  |  |  |  |  |  |  |  | 
B1 |  |  | increase | increased | decreased | decreased | increased | only a modest increase | only a modest increase | modest decrease | significantly increased | 
B2 |  |  | increase | increased | decreased | decreased | increased | increase | robust increase | had no effect | significantly increased | modest increase
